Laboratory results from the supplement of paper PMC9112550, “Optimization of the antimicrobial peptide Bac7 by deep mutational scanning” (BMC Biology, 2022).

Test system: Escherichia coli TOP10
Experiment: shrunken log2 fold change of peptide-encoding DNA abundance (4.5 h post-induction vs induction); higher = less antimicrobial activity (less host growth inhibition)
Conditions: time post-induction: 4.5 h; library: site-saturation at positions 5, 18, 19, 20
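Note: peptides expressed intracellularly from a pBAD plasmid library in pooled LB shake-flask culture, induced with 0.3% L-arabinose, DNA abundance read by NGS, three biological replicates, DESeq2 with apeglm shrinkage.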

| Sequence | shrunken log2 fold change |
| --- | --- |
| RRIRWRPPRLPRPRPRPIMEPRP | 0.0164 |
| RRIRQRPPRLPRPRPRPNICPRP | 0.0129 |
| RRIRTRPPRLPRPRPRPKKTPRP | 0.0546 |
| RRIRCRPPRLPRPRPRPPTRPRP | 0.645 |
| RRIRLRPPRLPRPRPRPCDNPRP | -0.161 |
| RRIRYRPPRLPRPRPRPMARPRP | -0.0425 |
| RRIRIRPPRLPRPRPRPSQMPRP | -0.0716 |
| RRIRWRPPRLPRPRPRPTYGPRP | 0.0553 |
| RRIRFRPPRLPRPRPRPMVEPRP | -0.0547 |
| RRIRMRPPRLPRPRPRPDPCPRP | 0.0496 |
| RRIRWRPPRLPRPRPRPITMPRP | -0.0679 |
| RRIRHRPPRLPRPRPRPPWKPRP | 0.174 |
| RRIRVRPPRLPRPRPRPWKHPRP | -0.0202 |
| RRIRRRPPRLPRPRPRPVCAPRP | 0.547 |
| RRIRVRPPRLPRPRPRPFDFPRP | -0.266 |
| RRIRMRPPRLPRPRPRPYGTPRP | -0.411 |
| RRIRMRPPRLPRPRPRPVLCPRP | 0.182 |
| RRIRRRPPRLPRPRPRPLTQPRP | 0.342 |
| RRIRFRPPRLPRPRPRPRRSPRP | 0.0713 |
| RRIRFRPPRLPRPRPRPKKTPRP | 0.0466 |
| RRIRQRPPRLPRPRPRPWLIPRP | -0.289 |
| RRIRHRPPRLPRPRPRPRLDPRP | -0.0149 |
| RRIRHRPPRLPRPRPRPESIPRP | -0.107 |
| RRIRPRPPRLPRPRPRPSIHPRP | -0.974 |
| RRIRMRPPRLPRPRPRPDERPRP | 1.11 |

| Sequence | shrunken log2 fold change |
| --- | --- |
| RRIRYRPPRLPRPRPRPQWHPRP | -0.638 |
| RRIRHRPPRLPRPRPRPIGHPRP | -0.0911 |
| RRIRERPPRLPRPRPRPCYSPRP | -0.704 |
| RRIRGRPPRLPRPRPRPIWWPRP | 0.922 |
| RRIRKRPPRLPRPRPRPYMDPRP | -0.763 |
| RRIRCRPPRLPRPRPRPRTKPRP | 0.246 |
| RRIRGRPPRLPRPRPRPVWYPRP | 0.196 |
| RRIRDRPPRLPRPRPRPVEGPRP | 0.211 |
| RRIRTRPPRLPRPRPRPLVNPRP | -0.559 |
| RRIRDRPPRLPRPRPRPLFRPRP | -0.168 |
| RRIRQRPPRLPRPRPRPVTVPRP | 0.153 |
| RRIRNRPPRLPRPRPRPCTEPRP | -0.347 |
| RRIRTRPPRLPRPRPRPWEQPRP | 0.0248 |
| RRIRKRPPRLPRPRPRPMWYPRP | 0.0551 |
| RRIRGRPPRLPRPRPRPLTGPRP | 0.71 |
| RRIRFRPPRLPRPRPRPNEGPRP | -0.0411 |
| RRIRIRPPRLPRPRPRPHWGPRP | -0.175 |
| RRIRARPPRLPRPRPRPWKRPRP | 0.125 |
| RRIRGRPPRLPRPRPRPLDYPRP | 0.0074 |
| RRIRERPPRLPRPRPRPQLMPRP | -0.0865 |
| RRIRPRPPRLPRPRPRPKEQPRP | 0.183 |
| RRIRDRPPRLPRPRPRPDGNPRP | -0.00172 |
| RRIRPRPPRLPRPRPRPIVMPRP | -0.445 |
| RRIRRRPPRLPRPRPRPRSKPRP | 0.29 |
| RRIRYRPPRLPRPRPRPRNQPRP | -0.32 |

| Sequence | shrunken log2 fold change |
| --- | --- |
| RRIRPRPPRLPRPRPRPWDRPRP | 0.0969 |
| RRIRKRPPRLPRPRPRPAVVPRP | 0.0614 |
| RRIRARPPRLPRPRPRPQKQPRP | -0.00111 |
| RRIRNRPPRLPRPRPRPVEAPRP | 0.277 |
| RRIRSRPPRLPRPRPRPRWPPRP | 0.553 |
| RRIRMRPPRLPRPRPRPWISPRP | 0.00707 |
| RRIRARPPRLPRPRPRPCIQPRP | 0.151 |
| RRIRDRPPRLPRPRPRPGSQPRP | 0.0966 |
| RRIRERPPRLPRPRPRPKNVPRP | 0.0204 |
| RRIRWRPPRLPRPRPRPVQRPRP | 0.257 |
| RRIRIRPPRLPRPRPRPGESPRP | -0.0125 |
| RRIRVRPPRLPRPRPRPAGFPRP | 0.148 |
| RRIRTRPPRLPRPRPRPCCYPRP | -0.43 |
| RRIRGRPPRLPRPRPRPGLNPRP | 4.08 |
| RRIRYRPPRLPRPRPRPVWMPRP | -0.283 |
| RRIRKRPPRLPRPRPRPRWDPRP | 0.118 |
| RRIRMRPPRLPRPRPRPEKWPRP | 1.56 |
| RRIRARPPRLPRPRPRPGSKPRP | 0.227 |
| RRIRQRPPRLPRPRPRPILWPRP | -0.185 |
| RRIRYRPPRLPRPRPRPACLPRP | -0.211 |
| RRIRRRPPRLPRPRPRPTQVPRP | 0.677 |
| RRIRNRPPRLPRPRPRPEPWPRP | 0.0625 |
| RRIRSRPPRLPRPRPRPTGRPRP | 0.15 |
| RRIRMRPPRLPRPRPRPHTGPRP | 0.0957 |
| RRIRWRPPRLPRPRPRPGDMPRP | 0.344 |

| Sequence | shrunken log2 fold change |
| --- | --- |
| RRIRMRPPRLPRPRPRPCSIPRP | -0.0306 |
| RRIRIRPPRLPRPRPRPQWTPRP | -0.0472 |
| RRIRQRPPRLPRPRPRPSLYPRP | -0.233 |
| RRIRHRPPRLPRPRPRPATDPRP | -0.185 |
| RRIRQRPPRLPRPRPRPFHLPRP | -0.0558 |
| RRIRWRPPRLPRPRPRPVFYPRP | -0.193 |
| RRIRIRPPRLPRPRPRPFKLPRP | -0.597 |
| RRIRNRPPRLPRPRPRPAHEPRP | -0.0423 |
| RRIRTRPPRLPRPRPRPWRGPRP | 0.123 |
| RRIRCRPPRLPRPRPRPADKPRP | -0.0716 |
| RRIRARPPRLPRPRPRPNDWPRP | 0.466 |
| RRIRVRPPRLPRPRPRPDELPRP | -0.0586 |
| RRIRTRPPRLPRPRPRPWLKPRP | 0.18 |
| RRIRERPPRLPRPRPRPRTHPRP | -0.574 |
| RRIRCRPPRLPRPRPRPPMIPRP | -0.0902 |
| RRIRQRPPRLPRPRPRPPRKPRP | 0.835 |
| RRIRFRPPRLPRPRPRPYPFPRP | -0.69 |
| RRIRLRPPRLPRPRPRPQQKPRP | -0.167 |
| RRIRFRPPRLPRPRPRPSYIPRP | -0.41 |
| RRIRERPPRLPRPRPRPYALPRP | -0.000856 |
| RRIRFRPPRLPRPRPRPFESPRP | 0.0452 |
| RRIRVRPPRLPRPRPRPHLMPRP | -0.36 |
| RRIRQRPPRLPRPRPRPYALPRP | -0.0202 |
| RRIRRRPPRLPRPRPRPIWVPRP | 0.222 |
| RRIRWRPPRLPRPRPRPYSTPRP | -0.225 |

| Sequence | shrunken log2 fold change |
| --- | --- |
| RRIRQRPPRLPRPRPRPEPTPRP | 0.877 |
| RRIRCRPPRLPRPRPRPDRRPRP | 0.0327 |
| RRIRPRPPRLPRPRPRPTIVPRP | 0.121 |
| RRIRGRPPRLPRPRPRPCSIPRP | 0.0747 |
| RRIRDRPPRLPRPRPRPGHWPRP | 0.315 |
| RRIRRRPPRLPRPRPRPVDQPRP | 0.348 |
| RRIRHRPPRLPRPRPRPTWGPRP | 0.0618 |
| RRIRYRPPRLPRPRPRPNYIPRP | -1.2 |
| RRIRDRPPRLPRPRPRPYQDPRP | -0.00141 |
| RRIRRRPPRLPRPRPRPYSQPRP | -0.032 |
| RRIRNRPPRLPRPRPRPYNLPRP | 0.00765 |
| RRIRHRPPRLPRPRPRPCHAPRP | -0.0924 |
| RRIRVRPPRLPRPRPRPYDDPRP | -0.000921 |
| RRIRERPPRLPRPRPRPVLTPRP | -0.126 |
| RRIRYRPPRLPRPRPRPYHPPRP | -0.152 |
| RRIRNRPPRLPRPRPRPPHFPRP | 0.0188 |
| RRIRVRPPRLPRPRPRPACTPRP | -0.0478 |
| RRIRIRPPRLPRPRPRPGNTPRP | -0.546 |
| RRIRARPPRLPRPRPRPGEIPRP | 0.599 |
| RRIRERPPRLPRPRPRPSKVPRP | -0.365 |
| RRIRLRPPRLPRPRPRPMRQPRP | 0.181 |
| RRIRQRPPRLPRPRPRPFVFPRP | -0.273 |
| RRIRQRPPRLPRPRPRPNTDPRP | -0.166 |
| RRIRLRPPRLPRPRPRPHYPPRP | -0.736 |
| RRIRWRPPRLPRPRPRPPKDPRP | 0.0853 |
